B1: HDV Ribozyme (parent)
chain: GGCCGGCAUGGUCCCAGCCUCCUCGCUGGCGCCGGCUGGGCAACAUUCCGAGGGGACCGUCCCCUCGGUAAUGGCGAAUGGGACCCA

Variants of B1 are the subject of the series. As to the kind of experiment: self-cleavage, relative activity (ratio to wild type); higher = more cleavage; co-transcriptional.
For the variant C7U A8U, the self-cleavage was found to be 0.831. C7U A8G: the self-cleavage is 0.582. For the variant C7A G52A, the self-cleavage was determined as 0.629. As for C7A C57G, the self-cleavage amounted to 0.571.

C7G C24U: the self-cleavage was 0.0692. In the case of C7A A43U it was 0.0386; in that of G6U C61G, 0.707. Turning to A8C C86G, the self-cleavage is 1.02. In the case of C7A U69G, the self-cleavage is 0.751. As for G6C G17U, the figure is 0.237.

In the case of C7G G11C, the self-cleavage stood at 0. As for C7U C64A, the self-cleavage worked out at 0.923. In the case of G6C G52C, the self-cleavage is 0.237. For the variant C7U G25A, the self-cleavage was 0.212. In the case of G6U A77C it was 0.332; in that of C7G U72C, 0; in that of A8C G17A, 0.831. Take C7G C66U: the self-cleavage is 0.231. Regarding C7G C66G, the self-cleavage stood at 0.214. Consider C7G U12G, for which the self-cleavage stood at 0.

For the variant C7G C32A, the self-cleavage was 0.

Take C7G G50C: the self-cleavage is 0.138.

As to C7A U27C, the self-cleavage stood at 0.287. For C7U A56U, the self-cleavage came to 0.739. Consider G6C G74U, for which the self-cleavage is 0.196. As for G6C G74C, the self-cleavage came out at 0. As to C7U C36U, the self-cleavage turned out to be 0.399. For C7U A78C, the self-cleavage stood at 0.0923. G6A U69C: the self-cleavage was determined as 0.631. On to C7U C63U, for which the self-cleavage stood at 0.918.

Consider C7G C62G, for which the self-cleavage amounted to 0.111. As for C7G C62A, the self-cleavage came out at 0. In the case of A8C C75U, the self-cleavage was determined as 0.128. As for G6U G54A, the self-cleavage is 0.522. As for G6U C85A, the figure is 0.394; as for C7U G38A, 0.0496. In the case of C7U G38U, the self-cleavage came out at 0.109. For the variant C7U C49A, the self-cleavage was found to be 0.974. In the case of C7G G10C it was 0.222.

With G6U C18G, the self-cleavage worked out at 0. In the case of G6U C18A, the self-cleavage amounted to 0.131. With C7G U69C, the self-cleavage came to 0.277. In the case of C7G U69G it was 0.293; in that of G6A G10U, 0.0963. In the case of A8C C33G it was 0.0923.

In the case of C7G G17C, the self-cleavage stood at 0.

In the case of G6C C61A, the self-cleavage was determined as 0.161. As to G6C C61U, the self-cleavage turned out to be 0.285. For the variant C7U U69C, the self-cleavage is 0.853. Take G6U C21A: the self-cleavage is 0.227. Regarding G6U C21G, the self-cleavage was found to be 0.0361. With G6U C66A, the self-cleavage was 0.443.

In the case of G6U C66G, the self-cleavage was determined as 0.54.

On to G6A U65C, for which the self-cleavage worked out at 0.554. On to G6U G53A, for which the self-cleavage turned out to be 0.821. On to G6U G53C, for which the self-cleavage worked out at 0.494. For C7G C30A, the self-cleavage worked out at 0.0361. As for C7G C13A, the self-cleavage stood at 0. A8C C84G: the self-cleavage is 0.208. For C7A U9A, the self-cleavage amounted to 0.431.

Turning to G6U G31A, the self-cleavage worked out at 0.282. With G6U G31C, the self-cleavage was found to be 0.122. Turning to G6U A78G, the self-cleavage stood at 0.229. For C7A G55A, the self-cleavage turned out to be 0.627. As for C7G G82U, the self-cleavage stood at 0. With C7A A56U, the self-cleavage is 0.617.

For G6A G34A, the self-cleavage was found to be 0.0287. C7A G11U: the self-cleavage turned out to be 0.095. C7G C44A: the self-cleavage stood at 0. For C7G G53A, the self-cleavage worked out at 0.26. For the variant C7G G53U, the self-cleavage is 0.26. For the variant G6U G68C, the self-cleavage came out at 0.383. As to G6C G68A, the self-cleavage was found to be 0.201. Turning to C7U G10A, the self-cleavage turned out to be 0.425. C7U G10C: the self-cleavage was determined as 0.266. Take G6C G54A: the self-cleavage was 0.415.

As to C7A C64A, the self-cleavage amounted to 0.227. Consider G6C C7A, for which the self-cleavage was 0.772. In the case of G6C A8G it was 0.332. Regarding G6C A8C, the self-cleavage is 0.

G6U A16G: the self-cleavage turned out to be 0.388. G6U A16C: the self-cleavage stood at 0. As to G6U A51U, the self-cleavage is 0.739. C7U G81U: the self-cleavage is 0.187. As for C7U G81A, the figure is 0.352; as for C7U C24G, 0.0739. In the case of C7G C84A, the self-cleavage is 0.111.

Consider G6C C21G, for which the self-cleavage is 0.0875. Regarding G6U C30U, the self-cleavage turned out to be 0.131. On to G6U C30G, for which the self-cleavage was determined as 0.0326. With G6U A42U, the self-cleavage is 0.095.

For the variant C7U C66U, the self-cleavage worked out at 0.665. As to C7U G52A, the self-cleavage was 0.68.

With A8C C22U, the self-cleavage was found to be 0.426. As for C7U G34A, the figure is 0.0302; as for C7G A8G, 0.519. Consider C7G A8C, for which the self-cleavage worked out at 0. On to G6A G29C, for which the self-cleavage worked out at 0.0326.

Consider C7A C32G, for which the self-cleavage worked out at 0. For C7U G68U, the self-cleavage was 0.764. In the case of C7U G82C, the self-cleavage came out at 0.227.

Regarding G6C A45C, the self-cleavage was 0.185. Consider C7G G74A, for which the self-cleavage is 0.138.

For the variant C7G G74C, the self-cleavage was 0.0475. For G6A G31U, the self-cleavage stood at 0.219. Consider A8C C63G, for which the self-cleavage is 0.554. As for A8C C63A, the self-cleavage turned out to be 0.852.

For A8C C21G, the self-cleavage is 0.0594.

In the case of C7U C41G, the self-cleavage is 0.225. C7U G50A: the self-cleavage came out at 0.786. For the variant A8C C66A, the self-cleavage worked out at 0.831. In the case of G6U U72G it was 0.133; in that of G6U U72A, 0.0665.

Consider G6U C32G, for which the self-cleavage worked out at 0.798. Regarding C7A C66U, the self-cleavage amounted to 0.587. As to G6C G55A, the self-cleavage stood at 0.16. As to A8C A77U, the self-cleavage is 0.356.

For the variant A8C A77C, the self-cleavage was 0.317. As for G6A G54U, the figure is 0.819; as for G6A G54A, 0.471; as for G6C U69A, 0.208. In the case of G6C A42C it was 0.138; in that of G6C A42U, 0.158; in that of A8C A83G, 0.646. On to C7G C14G, for which the self-cleavage came out at 0. Consider G6A U9A, for which the self-cleavage came to 0.942. G6U G17U: the self-cleavage was found to be 0.0519. In the case of C7A A78U it was 0.0791; in that of C7A U65A, 0.356; in that of C7A U65G, 0.246.

With C7G G25C, the self-cleavage amounted to 0. For A8C A16G, the self-cleavage was 0.831. C7U A51C: the self-cleavage is 0.643. In the case of C7A G35C, the self-cleavage was 0.0665. In the case of C7A U79G it was 0.192; in that of C7A U79A, 0.249.

As for C7U G28U, the self-cleavage was found to be 0.0712.

Consider C7U G74A, for which the self-cleavage turned out to be 0.204. In the case of C7A C48U it was 0.542; in that of C7A G50C, 0.415. Take G6C C62A: the self-cleavage turned out to be 0.161. For C7A U47A, the self-cleavage stood at 0.697. In the case of G6A G40U, the self-cleavage worked out at 0.911. As for G6A U12A, the self-cleavage was 0.253.

As for G6A U12G, the self-cleavage worked out at 0.415.

For G6C G35A, the self-cleavage came to 0.0755. In the case of C7U C44U it was 0.374. As for C7U C44G, the figure is 0.464; as for C7U C58A, 0.88.

C7G C26U: the self-cleavage worked out at 0.356. For C7G U47A, the self-cleavage came to 0. For the variant G6C C49G, the self-cleavage is 0.166. Turning to G6C C24A, the self-cleavage stood at 0.138. G6U A83U: the self-cleavage was determined as 0.256. As for G6U A83G, the self-cleavage stood at 0.17.

For G6U C75G, the self-cleavage came out at 0.145.

In the case of G6U C75U, the self-cleavage amounted to 0.113. In the case of C7U C62A, the self-cleavage came out at 0.764. In the case of G6U G25U, the self-cleavage was 0.117. For the variant C7G C75G, the self-cleavage came out at 0.145. G6C G38A: the self-cleavage turned out to be 0.0396. Consider C7G C48U, for which the self-cleavage is 0.262.

Turning to C7A C22U, the self-cleavage stood at 0. As for C7A C22A, the figure is 0.0941; as for G6U G80U, 0.0838; as for C7U C13G, 0. As for C7U C13U, the figure is 0.332.

These data come from the RNAGym collection of RNA variant scans (doi:10.7554/elife.80360).
